Experimental data: PMC6202814

Experiments:
purified protein [1] = substrate: O=C[C@@H](O)CO; assay: purified protein; details: donor DHAP 60 mM, 50 mM TEA pH 7.5, 25 °C, apparent
purified protein [2] = substrate: O=C(CO)CO; assay: purified protein; details: acceptor varied 2-80 mM, donor DHAP 60 mM, 50 mM TEA pH 7.5, 25 °C, apparent

B1: L-rhamnulose-1-phosphate aldolase (RhaD) (Escherichia coli K-12) (protein)
chain: MQNITQSWFVQGMIKATTDAWLKGWDERNGGNLTLRLDDADIAPYHDNFHQQPRYIPLSQPMPLLANTPFIVTGSGKFFRNVQLDPAANLGIVKVDSDGAGYHILWGLTNEAVPTSELPAHFLSHCERIKATNGKDRVIMHCHATNLIALTYVLENDTAVFTRQLWEGSTECLVVFPDGVGILPWMVPGTDEIGQATAQEMQKHSLVLWPFHGVFGSGPTLDETFGLIDTAEKSAQVLVKVYSMGGMKQTISREELIALGKRFGVTPLASALAL
Km (purified protein [1]; acceptor varied 0.2-60 mM): 40.8 ± 5.8 mM | Vmax (purified protein [1]; acceptor varied 0.2-60 mM): 4.3 µmol/min/mg | kcat (purified protein [1]; acceptor varied 0.2-60 mM): 20.5 s⁻¹ | kcat/Km (purified protein [1]; acceptor varied 0.2-60 mM): 500 M⁻¹ s⁻¹ | Km (purified protein [2]): 23.4 ± 9.69 mM | Vmax (purified protein [2]): 0.86 µmol/min/mg | kcat (purified protein [2]): 4.1 s⁻¹ | kcat/Km (purified protein [2]): 180 M⁻¹ s⁻¹

B2: L-fuculose-1-phosphate aldolase (FucA) (Escherichia coli K-12) (protein)
chain: MERNKLARQIIDTCLEMTRLGLNQGTAGNVSVRYQDGMLITPTGIPYEKLTESHIVFIDGNGKHEEGKLPSSEWRFHMAAYQSRPDANAVVHNHAVHCTAVSILNRSIPAIHYMIAAAGGNSIPCAPYATFGTRELSEHVALALKNRKATLLQHHGLIACEVNLEKALWLAHEVEVLAQLYLTTLAITDPVPVLSDEEIAVVLEKFKTYGLRIEE
Km (purified protein [1]; acceptor varied 0.5-60 mM): 54.1 ± 3.6 mM | Vmax (purified protein [1]; acceptor varied 0.5-60 mM): 1.5 µmol/min/mg | kcat (purified protein [1]; acceptor varied 0.5-60 mM): 5 s⁻¹ | kcat/Km (purified protein [1]; acceptor varied 0.5-60 mM): 92 M⁻¹ s⁻¹
